According to patent publication US12247238B2, “Mogroside biocatalysis methods and products” (The Coca-Cola Company, priority 2019, dated 2025):
“Also recorded” adds a separate entry of the source.

Experiments:
Assay type in all cases: biochemical
[1] = Mogroside biocatalytic assay, equimolar MogV:SiaI substrate
Description: (§1) Standard mogroside biocatalytic assays were performed at 37° C. in 500 μL, volume 50 mM sodium citrate buffer pH 5.6, 10 mM magnesium chloride, 10 mM substrate (typically mogroside V) and 50 μg mL−1 enzyme, and incubated for 24-96 hours. Mogroside glucosidation activity was detected by direct HPLC detection and quantification of mogroside V substrate and mogroside products from filtered reaction supernatant, and quantified by comparison with standard curves based on peak.
(§2) Mogroside compounds HPLC separation and quantification was conducted using a Synergi Hydro-RP column (250 mm×4.6 mm or 150 mm×4.6 mm) with an initial flow rate of 1 mL min−1 and a water: acetonitrile gradient as per below, similar to that described by Zhou et al. (WO 2014/150127). Compounds were detected at 210 nm using diode array detector (Agilent Technologies, USA), and calibration curves established using standard curves from 0.1 to 10 mM.

[2] = Example 8 standard mogroside biocatalytic assay, Mog V as substrate; details: 37° C., pH 5.6
Description: as §1, with “μL” for “μL,”, “V or Siamenoside I)” for “V)”, “peak area (see Analytical Methods).” for “peak.”
as §2, with “Analytical Method: Mogroside” for “Mogroside”, “mM. 150 mm column retention times in minutes: mog V 9.5, sia 1 10.6, mog IVa 10.5, mog IV 11.3, mog III 12.6, mogl I 13.2. 250 mm column retention times: mog V 12.3, sia 1 13.2, mog IVa 13.5, mog IV 14.1, mog III 15.3, mog II 16.2.” for “mM.”

[3] = β-galactosidase ONPG activity assay; details: oNPG substrate, over 30 minutes
Description: Standard β-galactosidase assays were performed at room temperature using o-nitrophenyl-β-D-galactopyranoside (ONPG, Sigma) as a substrate in […] with detection of o-nitrophenol release at 420 nm (UV-Spectra Max Spectrophotometer, Molecular Devices, USA). A typical reaction contained 50 mM sodium citrate buffer pH 5.6, 10 mM magnesium chloride and 100 mM potassium chloride with 2 mM ONPG and the desired amount of enzyme (usually […]). Partially purified AoBG (Sigma G5160, USA) was used as a positive control at a final concentration of 1 U mL−1. Vmax was calculated using the SpectraMax Plus software (Molecular Devices, USA) and when required kinetics were determined by varying the concentration of substrate and kinetic determinants calculated using Hyper™ (J. S. Easterby, Liverpool University).
(§3) Cells expressing enzyme variants grown in buffered minimal medium were induced for 72 hr with 1% methanol (refreshed every 24 hr), the culture supernatant harvested and assayed for standard ONPG activity over 30 minutes and mogroside V activity at pH 5.6, 37° C. for 72 hrs. The resultant activity data (Table 2) identified E200 and D258 as the likely catalytic pair for acid/base and nucleophilic attack of mogroside V by the A. oryzae β-glucosidase enzyme.

[4] = Example 8 standard mogroside biocatalytic assay, Sia I as substrate; details: 37° C., pH 5.6
Description: as §1, with “μL” for “μL,”, “V or Siamenoside I)” for “V)”, “peak area (see Analytical Methods).” for “peak.”
as §2, with “Analytical Method: Mogroside” for “Mogroside”, “mM. 150 mm column retention times in minutes: mog V 9.5, sia 1 10.6, mog IVa 10.5, mog IV 11.3, mog III 12.6, mogl I 13.2. 250 mm column retention times: mog V 12.3, sia 1 13.2, mog IVa 13.5, mog IV 14.1, mog III 15.3, mog II 16.2.” for “mM.”

[5] = Mogroside biocatalytic assay, Siamenoside I substrate; details: SiaI Substrate (10 mM) (24 h), pH 5.6, 37° C.
Description: as §1, §2

[6] = Example 8 standard mogroside biocatalytic assay, Mog V as substrate; details: 37° C., pH 5.6; remark: listed apart in the source
[7] = Standard mogroside biocatalytic assay, mogroside V substrate
Description: as §1, §2, §3

[8] = Equimolar MogV:SiaI Substrate (5 mM each) (48 h), pH 5.6, 37° C.
[9] = Mog V Substrate (10 mM) (24 h), pH 5.6, 37° C.
[10] = Mogroside hydrolysis, 72 h, 37 C., pH 5.6
[11] = product ratio, 72 h, 37 C., pH 5.6

B1: E142A: A. oryzae β-galactosidase variant, E142A (protein, UniProt Q2UCU3 19-1005, looked up, variant E142A)
Beta-galactosidase A: ASIKHRLNGFTILEHPDPAKRDLLQDIVTWDDKSLFINGERIMLFSGEVHPFRLPVPSLWLDIFHKIRALGFNCVSFYIDWALLEGKPGDYRAEGIFALEPFFDAAKEAGIYLIARPGSYINAAVSGGGFPGWLQRVNGTLRSSDEPFLKATDNYIANAAAAVAKAQITNGGPVILYQPENEYSGGCCGVKYPDADYMQYVMDQARKADIVVPFISNDASPSGHNAPGSGTGAVDIYGHDSYPLGFDCANPSVWPEGKLPDNFRTLHLEQSPSTPYSLLEFQAGAFDPWGGPGFEKCYALVNHEFSRVFYRNDLSFGVSTFNLYMTFGGTNWGNLGHPGGYTSYDYGSPITETRNVTREKYSDIKLLANFVKASPSYLTATPRNLTTGVYTDTSDLAVTPLIGDSPGSFFVVRHTDYSSQESTSYKLKLPTSAGNLTIPQLEGTLSLNGRDSKIHVVDYNVSGTNIIYSTAEVFTWKKFDGNKVLVLYGGPKEHHELAIASKSNVTIIEGSDSGIVSTRKGSSVIIGWDVSSTRRIVQVGDLRVFLLDRNSAYNYWVPELPTEGTSPGFSTSKTTASSIIVKAGYLLRGAHLDGADLHLTADFNATTPIEVIGAPTGAKNLFVNGEKASHTVDKNGIWSSEVKYAAPEIKLPGLKDLDWKYLDTLPEIKSSYDDSAWVSADLPKTKNTHRPLDTPTSLYSSDYGFHTGYLIYRGHFVANGKESEFFIRTQGGSAFGSSVWLNETYLGSWTGADYAMDGNSTYKLSQLESGKNYVITVVIDNLGLDENWTVGEETMKNPRGILSYKLSGQDASAITWKLTGNLGGEDYQDKVRGPLNEGGLYAERQGFHQPQPPSESWESGSPLEGLSKPGIGFYTAQFDLDLPKGWDVPLYFNFGNNTQAARAQLYVNGYQYGKFTGNVGPQTSFPVPEGILNYRGTNYVALSLWALESDGAKLGSFELSYTTPVLTGYGNVESPEQPKYEQRKGAY
mog II [1, 8]: 0.1 molar percentage
mog III [1, 8]: 3 molar percentage
mog IV [1, 8]: 0.2 molar percentage
mog V [1, 8]: 10 molar percentage
sia I [1, 8]: 82 molar percentage
effectiveness of Siamenoside I as a substrate in the presence of mogroside V (in words) ([1]; comparison of wildtype and variant): reducing the effectiveness of Siamenoside I as a substrate
Reaction progress (% conversion) [2]: 91%
% Siamenoside I ([2]; 72 hr): 78 ± 2.8%
oNPG [3]: 33.6 ± 0.4 mAu/min/mg
Km [4]: 4.42 ± 0.9 mM
kcat [4]: 3.9 ± 0.7 s⁻¹
mog II [5]: 3 molar percentage
mog III [5]: 12 molar percentage
sia I [5]: 84 molar percentage
Km [6]: 2 ± 0.4 mM
kcat [6]: 741 ± 38 s⁻¹
Siamenoside I production/yield from mogroside V (in words) [7]: increased ratio of Siamenoside I production; also recorded: increased Siamenoside I yield
mog III [7, 9]: 1 molar percentage
mog V [7, 9]: 67 molar percentage
sia I [7, 9]: 32 molar percentage
Initial Rate ([7]; Mogroside hydrolysis, 37 C., pH 5.6): 2.16 µmol/min/mg
Reaction Progress [7, 10]: 89%
Sia 1 [7, 10]: 73%
Sia:MogIII [7, 11]: 16.2
Sia:MogIV [7, 11]: 13
